Columns and labels:
Experiment in all cases: FRET or BRET; acceptor-bleaching FRET at kinetochores of transfected human cells (HeLa, HEp-2, U2OS), in vivo or in situ; donor EGFP, acceptor mCherry; E_FRET of a bleached region compared with EVAR of an unbleached region
[1] = molecular target: EGFP-CENP-U (UniProt Q71F23)
[2] = molecular target: CENP-S-mCherry (UniProt Q8N2Z9)
[3] = molecular target: mCherry-CENP-S (UniProt Q8N2Z9)
[4] = molecular target: CENP-B-mCherry (UniProt P07199)
[5] = molecular target: mCherry-CENP-B (UniProt P07199)
[6] = molecular target: mCherry-H3.1 (human) (UniProt P68431)

UniProt Q71F23, sequence (Q71F23 whole entry): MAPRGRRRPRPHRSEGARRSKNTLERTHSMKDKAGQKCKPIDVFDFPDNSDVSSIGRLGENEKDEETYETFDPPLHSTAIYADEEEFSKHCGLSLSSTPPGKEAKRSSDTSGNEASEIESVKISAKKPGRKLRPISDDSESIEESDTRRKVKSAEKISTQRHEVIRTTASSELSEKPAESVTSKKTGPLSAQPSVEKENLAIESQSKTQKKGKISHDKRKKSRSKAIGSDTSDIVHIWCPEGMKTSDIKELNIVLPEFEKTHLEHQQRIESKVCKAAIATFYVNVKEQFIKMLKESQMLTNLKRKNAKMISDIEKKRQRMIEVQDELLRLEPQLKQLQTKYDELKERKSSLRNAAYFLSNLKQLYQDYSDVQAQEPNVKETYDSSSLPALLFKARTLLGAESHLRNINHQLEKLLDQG

“CENP-M-mCherry (from UniProt Q9NSP4 1-180) (natural protein)” showed a mean E FRET % [1] of 6.08% and a ΔE % [1] of 7.86%.

Work on “CENP-M-EGFP (from UniProt Q9NSP4 1-180) (natural protein)” yielded a mean E FRET % [2] of 3.49%, a ΔE % [2] of 3.91% and a mean E FRET % [3] of 4%. It also gave a ΔE % [3] of 4.78%.

For “EGFP-CENP-W (from UniProt Q5EE01 1-88) (natural protein)”, the mean E FRET % [4] was 4.37% and the ΔE % [4] was 3.6%.

For “CENP-W-EGFP (from UniProt Q5EE01 1-88) (natural protein)”, the mean E FRET % [5] was 5.07%, the ΔE % [5] was 4.4% and the mean E FRET % [6] was 3.7%. It also gave a ΔE % [6] of 5.8%.

— publication PMC4394509
